The values that follow come from article PMC12103653 (2025).

The target in the assay is Leukemia inhibitory factor (LIF), un-glycosylated recombinant protein (human, UniProt P15018 23-202). Nature of the assay: SPR.
Leukemia inhibitory factor (LIF), un-glycosylated recombinant protein, sequence (P15018 23-202): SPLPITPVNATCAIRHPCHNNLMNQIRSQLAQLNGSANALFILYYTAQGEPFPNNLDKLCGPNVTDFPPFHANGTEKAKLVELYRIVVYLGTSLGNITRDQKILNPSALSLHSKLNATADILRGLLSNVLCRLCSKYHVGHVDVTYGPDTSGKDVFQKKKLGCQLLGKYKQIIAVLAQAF

B1: LIF receptor LIFR (receptor)
chain: QKKGAPHDLKCVTNNLQVWNCSWKAPSGTGRGTDYEVCIENRSRSCYQLEKTSIKIPALSHGDYEITINSLHDFGSSTSKFTLNEQNVSLIPDTPEILNLSADFSTSTLYLKWNDRGSVFPHRSNVIWEIKVLRKESMELVKLVTHNTTLNGKDTLHHWSWASDMPLECAIHFVEIRCYIDNLHFSGLEEWSDWSPVKNISWIPDSQTKVFPQDKVILVGSDITFCCVSQEKVLSALIGHTNCPLIHLDGENVAIKIRNISVSASSGTNVVFTTEDNIFGTVIFAGYPPDTPQQLNCETHDLKEIICSWNPGRVTALVGPRATSYTLVESFSGKYVRLKRAEAPTNESYQLLFQMLPNQEIYNFTLNAHNPLGRSQSTILVNITEKVYPHTPTSFKVKDINSTAVKLSWHLPGNFAKINFLCEIEIKKSNSVQEQRNVTIKGVENSSYLVALDKLNPYTLYTFRIRCSTETFWKWSKWSNKKQHLTTEASPSKGPDTWREWSSDGKNLIIYWKPLPINEANGKILSYNVSCSSDEETQSLSEIPDPQHKAEIRLDKNDYIISVVAKNSVGSSPPSKIASMEIPNDDLKIEQVVGMGKGILLTWHYDPNMTCDYVIKWCNSSRSEPCLMDWRKVPSNSTETVIESDEFRPGIRYNFFLYGCRNQGYQLLRSMIGYIEELAPIVAPNFTVEDTSADSILVKWEDIPVEELRGFLRGYLFYFGKGERDTSKMRVLESGRSDIKVKNITDISQKTLRIADLQGKTSYHLVLRAYTDGGVGPEKSMYVVTKENS
For the molecule B1, the Kd came to 6.31 µM.
